Assay results from article PMC11313866 (Science Advances, 2024).

Target: recombinant S. cerevisiae histone H3-H4 (S. cerevisiae, UniProt P61830 1-136; P02309 1-103)
Experiment: pull-down

B1: GST-Pol32^244-350 (domain or fragment)
chain: DKNNDDLEDLLETTAEDSLMDVPKIQQTKPSETEHSKEPKSEEEPSSFIDEDGYIVTKRPATSTPPRKPSPVVKRALSSSKKQETPSSNKRLKKQGTLESFFKRKAK
B1: binds.
